Measurements published in patent publication US20210238276A1 (INTEGRAL MOLECULAR, published 2021).

Assays:
Assay in all cases: flow cytometry, alanine-scan library in HEK-293T, with cytochalasin B
hsGLUT4 P224A = biological target: T1, hsGLUT4 P224A (human, UniProt P14672 1-509)
T1 sequence: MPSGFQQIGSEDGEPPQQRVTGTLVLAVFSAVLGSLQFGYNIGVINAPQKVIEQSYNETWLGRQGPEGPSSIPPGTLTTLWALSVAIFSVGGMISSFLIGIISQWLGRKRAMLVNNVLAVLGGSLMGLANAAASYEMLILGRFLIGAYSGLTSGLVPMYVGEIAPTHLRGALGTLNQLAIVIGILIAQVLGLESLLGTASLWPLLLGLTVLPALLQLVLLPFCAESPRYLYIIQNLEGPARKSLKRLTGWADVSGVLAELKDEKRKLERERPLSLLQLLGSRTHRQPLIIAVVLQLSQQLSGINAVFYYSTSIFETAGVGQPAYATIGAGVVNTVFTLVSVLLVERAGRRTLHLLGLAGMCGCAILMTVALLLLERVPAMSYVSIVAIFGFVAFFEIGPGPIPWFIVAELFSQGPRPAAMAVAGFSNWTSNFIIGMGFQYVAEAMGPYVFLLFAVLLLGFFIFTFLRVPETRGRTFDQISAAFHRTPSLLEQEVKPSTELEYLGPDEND
Summary of the method: (§1)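 HEK-293T cells expressing individual GLUT4 alanine mutants were stained 48 h post-transfection with anti-GLUT4 scFv MAbs (2 μg/ml), then biotinylated secondary and streptavidin-PerCP, and read by high-throughput flow cytometry. Where used, cytochalasin B (10 uM final) was given for 30 min before and during primary antibody staining.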

hsGLUT4 V306A = biological target: T2, hsGLUT4 V306A (human, UniProt P14672 1-509)
T2 sequence: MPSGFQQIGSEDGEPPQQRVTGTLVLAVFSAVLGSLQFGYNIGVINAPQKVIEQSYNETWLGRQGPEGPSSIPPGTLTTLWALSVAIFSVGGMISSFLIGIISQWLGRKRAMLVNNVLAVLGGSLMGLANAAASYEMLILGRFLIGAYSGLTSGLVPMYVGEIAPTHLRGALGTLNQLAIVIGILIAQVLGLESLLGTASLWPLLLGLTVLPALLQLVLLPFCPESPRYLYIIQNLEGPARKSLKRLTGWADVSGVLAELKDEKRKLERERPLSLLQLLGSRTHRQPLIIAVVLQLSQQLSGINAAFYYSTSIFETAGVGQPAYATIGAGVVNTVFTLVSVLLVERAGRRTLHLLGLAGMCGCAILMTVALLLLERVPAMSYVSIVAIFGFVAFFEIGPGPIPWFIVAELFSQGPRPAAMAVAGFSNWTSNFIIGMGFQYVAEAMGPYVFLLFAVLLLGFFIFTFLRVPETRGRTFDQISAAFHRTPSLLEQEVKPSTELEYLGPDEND
Summary of the method: as §1

hsGLUT4 R169A = biological target: T3, hsGLUT4 R169A (human, UniProt P14672 1-509)
T3 sequence: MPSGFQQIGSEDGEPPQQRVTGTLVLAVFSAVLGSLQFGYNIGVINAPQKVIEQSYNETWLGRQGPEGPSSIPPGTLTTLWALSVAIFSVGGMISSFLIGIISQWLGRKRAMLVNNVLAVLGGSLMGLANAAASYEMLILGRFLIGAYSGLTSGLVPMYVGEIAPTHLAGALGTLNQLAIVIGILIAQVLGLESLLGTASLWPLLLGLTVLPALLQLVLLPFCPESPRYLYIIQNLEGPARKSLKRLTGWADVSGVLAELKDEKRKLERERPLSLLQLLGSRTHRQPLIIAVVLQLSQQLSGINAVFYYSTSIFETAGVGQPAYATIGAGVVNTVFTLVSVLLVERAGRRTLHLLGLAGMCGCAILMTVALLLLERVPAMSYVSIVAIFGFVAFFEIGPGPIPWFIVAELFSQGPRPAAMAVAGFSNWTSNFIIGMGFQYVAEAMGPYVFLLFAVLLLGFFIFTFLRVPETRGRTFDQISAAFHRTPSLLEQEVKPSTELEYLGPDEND
Summary of the method: as §1

hsGLUT4 M112A = biological target: T4, hsGLUT4 M112A (human, UniProt P14672 1-509)
T4 sequence: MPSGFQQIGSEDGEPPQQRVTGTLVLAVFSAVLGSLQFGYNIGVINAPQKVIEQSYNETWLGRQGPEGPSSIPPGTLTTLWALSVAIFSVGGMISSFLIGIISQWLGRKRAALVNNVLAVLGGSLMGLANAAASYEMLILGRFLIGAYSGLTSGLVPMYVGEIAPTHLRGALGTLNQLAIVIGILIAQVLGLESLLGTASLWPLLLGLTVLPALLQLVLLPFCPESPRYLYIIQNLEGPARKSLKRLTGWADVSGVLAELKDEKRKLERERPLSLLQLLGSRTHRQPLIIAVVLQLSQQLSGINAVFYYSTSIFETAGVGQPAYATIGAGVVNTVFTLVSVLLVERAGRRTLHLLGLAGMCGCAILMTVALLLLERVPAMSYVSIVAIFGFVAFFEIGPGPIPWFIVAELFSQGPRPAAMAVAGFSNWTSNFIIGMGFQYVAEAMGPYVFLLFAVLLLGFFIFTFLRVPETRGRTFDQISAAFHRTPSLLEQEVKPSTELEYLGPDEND
Summary of the method: as §1

B1: AB102 (Fc fusion)
scFv: ALTQPSSVSANLGGTVKITCSGGGSYGYGWYQQKSPGSAPVTVIYSNDQRPSDIPSRFSGSKSGSTATLTITGVRAEDEAIYYCGSTDSDYVGIFGAGTTLTVLGQSSRSSGGGGSSGGGGSAVTLDESGGGLQTPGGTLSLVCKASGFDFSSYATIWVRQAPGKGLEWVAGISGTGTGSSTGYAPAVKGRATISRDNGQSTVRLQLNNLRAEDTGSYFCAKSTGYGDSWIYPDSIDAWGHGTEVIVSS
notes: also called MAb AB102; not shown: Fc fragment of human IgG1, cloned in frame with the scFv
% of binding to wild type GLUT4 (hsGLUT4 P224A): 29% | % of binding to wild type GLUT4 (hsGLUT4 V306A): 29% | % of binding to wild type GLUT4 (hsGLUT4 R169A): 77% | % of binding to wild type GLUT4 (hsGLUT4 M112A): 23%
